Laboratory results from PMC3627575.

B1: dsS0mm (dsDNA)
DNA 1: GCGTCGAGACGC
DNA 2: GCGTCGAGACGC
B2: N25 (dsDNA)
DNA 1: TATACAAACCCCTTACCAATATCATA
DNA 2: ATATGATATTGGTAAGGGGTTTGTAT
B3: v1 (dsDNA)
DNA 1: AGGCACGCGTCCAGGCAACCGGG
DNA 2: TCCCGGTTGCCTGGACGCGTGCC
B4: v2 (dsDNA)
DNA 1: ATAACTGGGAGGCGACGCTGGCG
DNA 2: TCGCCAGCGTCGCCTCCCAGTTA
B5: S0_x2 (dsDNA)
DNA 1: AGCGTCGAGACGCGCGTCGAGACGC
DNA 2: TGCGTCTCGACGCGCGTCTCGACGC
B6: PRDIII-I (dsDNA)
DNA 1: GAGGAAAACTGAAAGGGAACTGAAA
DNA 2: TTTCAGTTCCCTTTCAGTTTTCCTC

These binders were tested against T1, vIRF-1 DBD (vIRF-1 88-196) (Kaposi's sarcoma-associated herpesvirus …, UniProt F5HF68 88-196) (assay: X-ray crystallography).
T1 sequence (F5HF68 88-196): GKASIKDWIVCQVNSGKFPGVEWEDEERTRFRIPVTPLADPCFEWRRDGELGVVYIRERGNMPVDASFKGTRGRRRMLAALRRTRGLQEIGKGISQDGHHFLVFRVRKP
B1: binds.

These binders were tested against T1, vIRF-1 DBD (vIRF-1 88-196) (assay: thermal stability shift assay).
B2: binds.
B3: binds.
B4: binds.
B5: binds.
B6: binds.
